Assay results published in US20180215829A1 (CRESCENDO BIOLOGICS, published 2018).

Legend:
[1] = biological target: T1, recombinant human IL-17RA Fc fusion protein (R&D Systems 177-IR-100) (human, UniProt Q96F46 33-320); assay: receptor/ligand biochemical inhibition ELISA: VH competes with 1 nM IL-17A for coated IL-17RA-Fc
T1 construct: Bought protein; not shown: Fc domain of human IgG1
T1 sequence: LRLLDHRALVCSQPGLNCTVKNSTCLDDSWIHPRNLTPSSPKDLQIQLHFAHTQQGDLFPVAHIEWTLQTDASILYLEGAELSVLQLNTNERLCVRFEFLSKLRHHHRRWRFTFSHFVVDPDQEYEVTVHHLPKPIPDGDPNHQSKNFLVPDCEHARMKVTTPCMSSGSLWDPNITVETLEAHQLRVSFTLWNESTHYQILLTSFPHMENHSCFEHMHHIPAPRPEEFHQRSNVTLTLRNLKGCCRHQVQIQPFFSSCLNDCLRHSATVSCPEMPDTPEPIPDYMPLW
Protocol: VH, both purified and crude periplasmic extracts, were also tested for their ability to inhibit the interaction of IL-17A with recombinant IL-17RA-Fc. […] Following washing of excess coating antigen, as described above, the wells of the plate were incubated with 3% Marvel/PBS to block non-specific protein interactions. VH preparations, crude periplasmic extracts or purified VH, or suitable controls, were prepared with 1 nM recombinant IL-17A (Peprotech, cat# AF-200-17) in 3% skimmed milk powder/PBS solution in polypropylene plates or tubes. The mixture was then transferred to the assay plate and incubated for 1 hour at room temperature. Excess protein was removed by washing and bound IL-17A was detected by incubation with biotinylated anti-IL-17A Mab (R & D Systems, cat BAF317) followed by the addition of neutravidin-HRP (Pierce, cat#31030) and TMB substrate (Sigma, cat# T0440). The TMB reaction was stopped by addition of 0.5M H₂SO₄ and absorbances were measured at 450 nm in a plate reader.

[2] = biological target: T2, human IL-17RA on HT1080 cells (human, UniProt Q96F46 33-866); assay: cell-based or functional assay
T2 sequence: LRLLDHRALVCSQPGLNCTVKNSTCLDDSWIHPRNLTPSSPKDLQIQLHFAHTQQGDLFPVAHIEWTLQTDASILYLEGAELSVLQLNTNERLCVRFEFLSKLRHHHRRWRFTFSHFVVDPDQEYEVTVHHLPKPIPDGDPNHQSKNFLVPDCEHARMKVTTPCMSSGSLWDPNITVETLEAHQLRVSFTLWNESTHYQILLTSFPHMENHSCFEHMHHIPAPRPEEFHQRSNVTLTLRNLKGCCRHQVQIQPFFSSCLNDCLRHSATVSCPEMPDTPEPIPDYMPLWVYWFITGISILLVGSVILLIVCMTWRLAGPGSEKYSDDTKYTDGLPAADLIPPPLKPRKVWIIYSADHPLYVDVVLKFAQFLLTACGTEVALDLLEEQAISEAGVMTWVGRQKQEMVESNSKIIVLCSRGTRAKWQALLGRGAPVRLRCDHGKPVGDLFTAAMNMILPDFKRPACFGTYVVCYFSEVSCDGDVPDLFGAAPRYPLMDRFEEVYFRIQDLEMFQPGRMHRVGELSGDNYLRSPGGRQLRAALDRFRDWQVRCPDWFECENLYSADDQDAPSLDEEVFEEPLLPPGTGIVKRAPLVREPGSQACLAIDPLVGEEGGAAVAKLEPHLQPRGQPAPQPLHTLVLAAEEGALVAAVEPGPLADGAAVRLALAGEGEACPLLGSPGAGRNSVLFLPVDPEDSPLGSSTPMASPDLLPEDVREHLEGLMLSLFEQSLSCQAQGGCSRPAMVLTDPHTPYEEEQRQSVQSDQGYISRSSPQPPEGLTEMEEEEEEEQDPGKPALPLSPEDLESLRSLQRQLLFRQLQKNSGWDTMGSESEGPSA

IC50 [1]: 3.7 nM | IC50 (nM), cell-based assay [2]: 363 nM
B1: VH clone 2.1 (VHH)
VHH: QVQLVQSGAEVKKPGASVKVSCKASGYPFTSYDINWVRQATGQSLEWMGWMNPNSGDTVYAQKFQGRVTMTRNTSISTAYMELSSLRSEDTAVYFCARGRRDDWKNNYWGQGTLVTVSS
notes: Human VH single domain antibody, no light chain; Parent clone of family 2; also called VH 2.1
